Our source for the percent of parent values is PMC8651051.

Among the targets are CV503_993_EL; CV503_664_GS; CV664_993_GS; CV993_521_GS.
Settings in all cases: N = 1 experiment

Take “full-length SARS-CoV-2 spike D614G, expressed on the cell surface (from UniProt P0DTC2) Alpha (B.1.1.7)”: the percent of parent in the assay with CV503_993_EL was 214 % of D614G; with CV503_664_GS, 236 % of D614G; with CV664_993_GS, 257 % of D614G; with CV993_521_GS it was 222 % of D614G.
In the case of “full-length SARS-CoV-2 spike D614G, expressed on the cell surface (from UniProt P0DTC2) Beta (B.1.351)”, the percent of parent with CV503_993_EL is 170 % of D614G; in the assay with CV503_664_GS, 202 % of D614G.
